Laboratory results as given in patent CN115772220A (WUHAN ABCLONAL INC, dated 2023).

Legend:
[1] = target: T1, 重组人IL-1β蛋白 (recombinant human IL-1β protein, as used in the Gator BLI experiments) (human, UniProt P01584 117-269); test: BLI (Gator Prime), affinity test
T1 construct: also called 人白介素-1β; 目的蛋白

[2] = target: T2, 重组人白介素-1β，R&D货号:840170 (recombinant human IL-1β standard of the sandwich ELISA) (human, UniProt P01584 117-269); test: double-antibody sandwich ELISA, 10A10 capture and 1F3-biotin detection, human IL-1β at 100pg/mL
T2 construct: also called 标准样品; 人白介素-1β蛋白

[3] = target: 重组人IL-1β蛋白 (recombinant human IL-1β protein, as used in the Gator BLI experiments) (human) (UniProt P01584); test: BLI (Gator Prime), IL-1β on the probe saturated with 1F3, 10A10 as second antibody

Row | binding result [1] | binding result [2] | shift值 [3] | Binder
1 | binds | binds |  | 兔单克隆抗体1F3 (rabbit monoclonal antibody 1F3 against human IL-1β) (antibody, V domains shown, In the BLI experiments it was unlabelled; also called 兔抗Human IL-1β单克隆抗体A; 1F3-biotin) VH: QSVEESGGRLVTPGTPLTLTCTVSGFSLSRNAISWVRQPPGKGLEWIGFISSYDTTYYATWAKGRFTISKTSTTVDLKIASPTTEDTATYFCARETGADNNSNFDIWGPGTLVTVSS VL: AQVLTQTPSPVSAAVGGTVTINCQSSQSVSHNNWLAWYQQKPGQPPKLLIYDASKLASGVSSRFRGSGSGTQFTLTISGVQCDDAATYYCQGETFCSSADCNAFGGGTELVVKG
2 |  |  | 0.214 | 兔单克隆抗体10A10 (rabbit monoclonal antibody 10A10 against human IL-1β) (antibody, V domains shown) VH: QSVEESGGRLVTPGTPLTLTCTVSGFSLSTYAMSWVRQAPGKGLEWIGIISGSGNTAYASWAKGRFTISKTSTTVDLKMTSPTTEDTATYFCARSYEDYANIWGPGTLVTVSS VL: AQVLTQTPSSVSAAVGGTVTINCQASQSLYNNNELSWYQQKPGQPPKLLIYKASTLASGVSSRFKGSGSGTQFTLTISGVQCDDAATYYCQGDYSCRIADCYAFGGGTEVVVKG
